Km data for 1 protein are collected here from US4016042A, “Substrate for the quantitative determination of enzymes” (Pentapharm A.G., priority 1974, dated 1977).

Substrate in the data set: N=C(N)NCCC[C@H](NC(=O)[C@H](Cc1ccccc1)NC(=O)[C@@H]1CCCN1C(=O)c1ccccc1)C(=O)Nc1ccc([N+](=O)[O-])cc1
The data set is described as follows: Km and vmax determination with substrate (Lineweaver-Burk), plasmin. Type of data set: biochemical. The note with it: other: plasmin; substrate concentration varied, enzyme constant; measured at 405 nm. The protocol: As is evident from equation (2) constants Km and k3 determine the activity of the enzyme substrate for a given enzyme. For determining these constants the following procedure is followed:
The enzyme and the substrate are mixed in a buffer solution, and the reaction is followed spectrophotometrically for 2 to 30 minutes. The concentration of substrate [S] is varied, whereas the enzyme concentration [E] is kept constant. If the extinction (OD) (= optical density) is plotted in a co-ordinate system as a function of time, a curve is obtained the tangent of which (difference in extinction per minute, Δ OD/minute, from which the quantity in μmoles of pNA/min (v) can be calculated) at time zero corresponds to the ideal course of the hydrolysis. By means of this tangent the initial rate of the hydrolysis can be determined.
If 1/v is plotted against 1/[S], a Lineweaver-Burk diagram (cf. "Kurzes Lehrbuch der Biochemie" by P. KARSON, Georg Thieme-Verlag, Stuttgart, 1967, p. 70) is obtained from which vmax and Km can be determined graphically.
Km and k3 = vmax /E were determined with N^α-Bz-Pro-Phe-Arg-pNA^. HCl (i.e. the substrate prepared according to Example 1) for plasma kallikrein, trypsin, plasmin and thrombin.

B1: plasmin (Homo sapiens) (protein)
chain: VVGGCVAHPHSWPWQVSLRTRFGMHFCGGTLISPEWVLTAAHCLEKSPRPSSYKVILGAHQEVNLEPHVQEIEVSRLFLEPTRKDIALLKLSSPAVITDKVIPACLPSPNYVVADRTECFITGWGETQGTFGAGLLKEAQLPVIENKVCNRYEFLNGRVQSTELCAGHLAGGTDSCQGDSGGPLVCFEKDKYILQGVTSWGLGCARPNKPGVYVRVSRFVTWIEGVMRNN
Take B1: the Km was 140 µM.
